Data reported in patent publication US20160257744A1 (Genentech, published 2016).
Residue numbers refer to the chain shown, from its start.

Experiments:
interleukin 13 (IL13) [1] = target: T1, interleukin 13 (IL13) (UniProt P35225 35-146, limits assumed); test: phage ELISA: direct binding of the phage clone to antigen-coated wells (NB = no detectable binding)
interleukin 4 (IL4) [2] = target: T2, interleukin 4 (IL4) (UniProt P05112 25-153); test: phage competition ELISA: Fab-phage incubated 2 h with serial dilutions of the antigen in solution, unbound phage captured on antigen-coated wells, anti-M13-HRP; IC50 = antigen concentration inhibiting 50% of phage binding
T2 sequence (looked up): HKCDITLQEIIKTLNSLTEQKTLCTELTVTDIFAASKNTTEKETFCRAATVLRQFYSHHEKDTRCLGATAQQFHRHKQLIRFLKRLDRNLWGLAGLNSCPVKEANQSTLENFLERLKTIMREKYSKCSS
Experimental: (§1) Fab displaying phage was first incubated with serial dilutions of the respective antigens in solution for 2 h, unbound phage was then briefly captured by antigen coated ELISA wells and detected with anti-M13 HRP conjugate. The concentration of antigen inhibiting 50% of phage binding to antigen coated well is calculated as IC₅₀. NB denotes no detectable binding of phage clone directly to the antigens coated wells.

interleukin 5 (IL5) [3] = target: T3, interleukin 5 (IL5) (human, UniProt P05113 20-134); test: as above
T3 construct: also called human IL5 (R&D Systems)
T3 sequence (looked up): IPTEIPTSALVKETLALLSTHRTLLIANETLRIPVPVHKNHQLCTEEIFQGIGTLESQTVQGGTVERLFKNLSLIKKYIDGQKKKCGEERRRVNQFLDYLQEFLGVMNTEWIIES
Experimental: as §1

HER2 ECD = target: T4, HER2 ECD; test: ELISA: human IgG1 at 250 nM on protein-coated wells, anti-Fc-HRP
T4 construct: one of the irrelevant proteins; also called irrelevant protein coated on ELISA wells

BSA = target: T5, BSA (bovine, UniProt P02769); test: as above
T5 construct: negative control protein; also called irrelevant protein coated on ELISA wells

interleukin 13 (IL13) [4] = target: T1, interleukin 13 (IL13); test: as above
interleukin 5 (IL5) [5] = target: T3, interleukin 5 (IL5); test: phage ELISA: direct binding of the phage clone to antigen-coated wells (NB = no detectable binding)
interleukin 13 (IL13) [6] = target: T1, interleukin 13 (IL13); test: phage competition ELISA: Fab-phage incubated 2 h with serial dilutions of the antigen in solution, unbound phage captured on antigen-coated wells, anti-M13-HRP; IC50 = antigen concentration inhibiting 50% of phage binding
Experimental: as §1

interleukin 5 (IL5) [7] = target: T3, interleukin 5 (IL5); test: phage competition ELISA (phage IC50), soluble IL5 against IL5-coated wells
Experimental: as §1
(§2) The relative affinity of each clone was assessed by phage IC₅₀ as above.

interleukin 5 (IL5) [8] = target: T3, interleukin 5 (IL5); test: SPR, Fab over immobilized IL5
interleukin 4 (IL4) [9] = target: T2, interleukin 4 (IL4); test: SPR (Biacore), Fab over CM5 chip with immobilized IL4, 25 °C
interleukin 5 (IL5) [10] = target: T3, interleukin 5 (IL5); test: SPR (Biacore), Fab over CM5 chip with immobilized human IL5, 25 °C
interleukin 4 (IL4) [11] = target: T2, interleukin 4 (IL4); test: phage competition ELISA (phage IC50), soluble IL4 against IL4-coated wells
Experimental: as §1, §2

T1 sequence (P35225 35-146 limits assumed): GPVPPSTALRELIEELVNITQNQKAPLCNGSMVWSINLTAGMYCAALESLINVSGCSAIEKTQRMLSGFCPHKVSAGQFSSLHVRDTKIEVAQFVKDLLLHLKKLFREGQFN
T5 sequence (P02769 25-607 limits assumed): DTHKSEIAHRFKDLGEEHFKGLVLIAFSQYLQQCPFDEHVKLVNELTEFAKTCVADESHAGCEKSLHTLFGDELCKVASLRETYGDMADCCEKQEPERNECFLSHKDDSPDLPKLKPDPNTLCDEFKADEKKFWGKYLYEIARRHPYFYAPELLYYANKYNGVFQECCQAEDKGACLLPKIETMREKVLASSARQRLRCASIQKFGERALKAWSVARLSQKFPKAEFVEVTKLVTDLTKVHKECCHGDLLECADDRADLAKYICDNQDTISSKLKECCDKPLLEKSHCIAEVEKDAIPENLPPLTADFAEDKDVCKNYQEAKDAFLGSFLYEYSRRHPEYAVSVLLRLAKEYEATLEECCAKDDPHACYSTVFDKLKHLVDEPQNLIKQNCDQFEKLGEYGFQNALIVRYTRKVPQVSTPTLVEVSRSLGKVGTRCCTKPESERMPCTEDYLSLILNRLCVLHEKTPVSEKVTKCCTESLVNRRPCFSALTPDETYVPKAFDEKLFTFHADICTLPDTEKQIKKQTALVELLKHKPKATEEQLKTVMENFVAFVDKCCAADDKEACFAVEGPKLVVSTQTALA

B1: B1, anti-IL4/IL5 dual specific variant of hu19C11, Fab displayed on phage (Fab, V domains shown)
VH: EVQLVQSGAEVKKPGASVKVSCKASGYTFTDYLMHWVRQAPGQGLEWIAVIVSITGRTYYADDFKGRVTITRDTSTSTAYLELSSLRSEDTAVYYCARGGIFYGMDYWGQGTLVTVSS
VL: DIQMTQSPSSLSASVGDRVTITCKASQSVINDAAWYQQKPGKAPKLLIYYTSHRYTGVPSRFSGSGSGTDFTLTISSLQEDFATYYCQQDYTPFPLTFGQGTKVEIKR
notes: also called clone B1
B1 was tested, and the binding result (interleukin 13 (IL13) [1]) was “no binding”, the IC50 (interleukin 4 (IL4) [2]) was about 1000 nM and the IC50 (interleukin 5 (IL5) [3]) was about 1000 nM.

B2: B1 as human IgG1 (antibody, V domains shown)
VH: B1 VH
VL: B1 VL
notes: also called IL4/IL5 dual specific antibody B1
B2: no binding (tested: 250 nM) (HER2 ECD); no binding (tested: 250 nM) (BSA); no binding (tested: 250 nM) (interleukin 13 (IL13) [4]).

B3: F2, anti-IL4/IL13 dual specific variant of hu19C11, Fab displayed on phage (Fab, V domains shown)
VH: EVQLVQSGAEVKKPGASVKVSCKASGYTFTDYSMHWVRQAPGQGLEWIGIIFYTGHTYYADDFKGRVTITRDTSTSTAYLELSSLRSEDTAVYYCARGGIFYGMDYWGQGTLVTVSS
VL: DIQMTQSPSSLSASVGDRVTITCKASQSVINDAAWYQQKPGKAPKLLIYYTSHRYTGVPSRFSGSGSGTDFTLTISSLQEDFATYYCQQDYTSPWTFGQGTKVEIKR
With B3 the binding result (interleukin 5 (IL5) [5]) was “no binding”, the IC50 (interleukin 4 (IL4) [2]) was 14.8 nM and the IC50 (interleukin 13 (IL13) [6]) was about 1000 nM.

B4: 1C.11 (Fab, V domains shown)
VH: EVQLVQSGAEVKKPGASVKVSCKASGYTFTDYFIHWVRQAPGQGLEWIGGIVYDATGFTIYAENFKGRVTITRDTSTSTAYLELSSLRSEDTAVYYCARGGIFYGMDYWGQGTLVTVSS
VL: B3 VL with T92I
B4 gave an IC50 (interleukin 5 (IL5) [7]) of about 1000 nM.

B5: 2B.28 (Fab, V domains shown)
VH: B4 VH with G49A, I60T, E63D, T75M, A80V
VL: B3 VL
B5 showed an IC50 (interleukin 5 (IL5) [7]) of 1.1 nM.

B6: 1C.94 (Fab, V domains shown)
VH: B4 VH with I60A, E63D, N64D
VL: B3 VL
B6 gave an IC50 (interleukin 5 (IL5) [7]) of about 1000 nM.

B7: 1C.3 (Fab, V domains shown)
VH: B4 VH with I60T, E63V, N64E
VL: B3 VL with S93H
B7 showed an IC50 (interleukin 5 (IL5) [7]) of about 1000 nM.

B8: 1C.42 (Fab, V domains shown)
VH: B4 VH with I60T, E63D, N64S
VL: B3 VL with S93H
For B8, the IC50 (interleukin 5 (IL5) [7]) was 8.5 nM.

B9: 2B.48 (Fab, V domains shown)
VH: B4 VH with G49A, I60T, E63D, N64A, A80V
VL: B3 VL
B9 gave an IC50 (interleukin 5 (IL5) [7]) of 9.2 nM.

B10: 1C.93 (Fab, V domains shown)
VH: B4 VH with I60V, E63D, N64D
VL: B3 VL with S93H
B10 showed an IC50 (interleukin 5 (IL5) [7]) of about 1000 nM.

B11: 2C.75 (Fab, V domains shown)
VH: B4 VH with G49A, I60T, E63D, N64F, A80V
VL: B3 VL
B11 gave an IC50 (interleukin 5 (IL5) [7]) of 0.6 nM.

B12: 1C.27 (Fab, V domains shown)
VH: B4 VH with E63D, N64D
VL: B3 VL with S93H
With B12 the IC50 (interleukin 5 (IL5) [7]) was 18.2 nM.

B13: 2B.64 (Fab, V domains shown)
VH: B4 VH with G49A, I60T, E63D, N64S, V69F, A80V
VL: B3 VL
Binder B13 has an IC50 (interleukin 5 (IL5) [7]) of about 1000 nM.

B14: E7 as human IgG1 (antibody, V domains shown)
VH: B4 VH with G49A, I60T, E63D, N64D
VL: B3 VL
notes: also called IL4/IL5 dual specific antibody E7
B14: no binding (tested: 250 nM) (HER2 ECD); no binding (tested: 250 nM) (BSA); no binding (tested: 250 nM) (interleukin 13 (IL13) [4]).

B15: 1C.91 (Fab, V domains shown)
VH: B4 VH with I60T, N64D
VL: B3 VL
In the case of B15, the IC50 (interleukin 5 (IL5) [7]) is reported as about 1000 nM.

B16: 1C.24 (Fab, V domains shown)
VH: B4 VH with G49A, I60T, E63D, N64S
VL: B3 VL with T92L, S93H
Work on B16 yielded an IC50 (interleukin 5 (IL5) [7]) of about 1000 nM.

B17: E7, anti-IL4/IL5 dual specific variant of hu19C11, Fab displayed on phage (Fab, V domains shown)
VH: B4 VH with G49A, I60T, E63D, N64D
VL: B3 VL
notes: also called clone E7
In the case of B17, the IC50 (interleukin 5 (IL5) [7]) is reported as about 1000 nM, the binding result (interleukin 13 (IL13) [1]) is reported as “no binding” and the IC50 (interleukin 5 (IL5) [3]) is reported as about 1000 nM.

B18: 2B.35 (Fab, V domains shown)
VH: B4 VH with G49A, I60T, E63D, N64T, T75P, A80V
VL: B3 VL
With B18 the IC50 (interleukin 5 (IL5) [7]) was 1.5 nM.

B19: 2B.6 (Fab, V domains shown)
VH: B4 VH with G49A, I60T, E63D, N64L, R73I, T75F
VL: B3 VL
Binder B19 has an IC50 (interleukin 5 (IL5) [7]) of about 1000 nM.

B20: 1C60, affinity-matured variant of E7, purified as Fab (Fab, V domains shown)
VH: B4 VH with G49A, I60V, E63D, N64D
VL: B3 VL with T92K, S93H
notes: Purified Fab for SPR
B20 was tested, and the Kd (interleukin 5 (IL5) [8]) was 44.4 nM, the “fold improvement of affinity toward IL5 against E7” value (interleukin 5 (IL5) [8]) was 20 fold and the Kd (interleukin 4 (IL4) [9]) was 4.9 nM. The koff (interleukin 4 (IL4) [9]) was 0.00342 s⁻¹, the kon (interleukin 4 (IL4) [9]) was 697000 M⁻¹ s⁻¹ and the koff (interleukin 5 (IL5) [10]) was 0.000552 s⁻¹. The kon (interleukin 5 (IL5) [10]) was 12400 M⁻¹ s⁻¹.

B21: 1C.36 (Fab, V domains shown)
VH: B4 VH with I60T, N64E
VL: B3 VL with S93H
notes: same clone as m16 and m18, here in the phage format
B21 gave an IC50 (interleukin 4 (IL4) [11]) of 2.1 nM and an IC50 (interleukin 5 (IL5) [7]) of 0.9 nM.

B22: F1, anti-IL4/IL13 dual specific variant of hu19C11, Fab displayed on phage (Fab, V domains shown)
VH: B3 VH with I50V, Y53Q, T54S, H56A
VL: B3 VL
With B22 the binding result (interleukin 5 (IL5) [5]) was “no binding”, the IC50 (interleukin 4 (IL4) [2]) was 22.3 nM and the IC50 (interleukin 13 (IL13) [6]) was about 1000 nM.

B23: 1C.60 (Fab, V domains shown)
VH: B4 VH with G49A, I60V, E63D, N64D
VL: B3 VL with T92K, S93H
notes: same clone as m17 and m19, here in the phage format
In the case of B23, the IC50 (interleukin 4 (IL4) [11]) is reported as 1.1 nM and the IC50 (interleukin 5 (IL5) [7]) is reported as 3.67 nM.

B24: 1C36, affinity-matured variant of E7, purified as Fab (Fab, V domains shown)
VH: B4 VH with I60T, N64E
VL: B3 VL with S93H
notes: Purified Fab for SPR
For B24, the Kd (interleukin 5 (IL5) [8]) was 24.1 nM, the “fold improvement of affinity toward IL5 against E7” value (interleukin 5 (IL5) [8]) was 37 fold and the Kd (interleukin 4 (IL4) [9]) was 3.5 nM. For the same binder, the koff (interleukin 4 (IL4) [9]) was 0.00197 s⁻¹, the kon (interleukin 4 (IL4) [9]) was 557000 M⁻¹ s⁻¹ and the koff (interleukin 5 (IL5) [10]) was 0.000221 s⁻¹. It also gave a kon (interleukin 5 (IL5) [10]) of 9180 M⁻¹ s⁻¹.
